{"source": "patent US20230303690A1", "about": "(published 2023)", "key": {"[1]": {"target": "T1, LAG3 Protein, Human, Recombinant (His Tag) (Sino Biological Catalog No. 16498-H08H) (human, UniProt P18627 23-450)", "T1 construct": "Bought protein; also called hLAG3-His; LAG3-His; not shown: His tag", "T1 sequence (looked up)": "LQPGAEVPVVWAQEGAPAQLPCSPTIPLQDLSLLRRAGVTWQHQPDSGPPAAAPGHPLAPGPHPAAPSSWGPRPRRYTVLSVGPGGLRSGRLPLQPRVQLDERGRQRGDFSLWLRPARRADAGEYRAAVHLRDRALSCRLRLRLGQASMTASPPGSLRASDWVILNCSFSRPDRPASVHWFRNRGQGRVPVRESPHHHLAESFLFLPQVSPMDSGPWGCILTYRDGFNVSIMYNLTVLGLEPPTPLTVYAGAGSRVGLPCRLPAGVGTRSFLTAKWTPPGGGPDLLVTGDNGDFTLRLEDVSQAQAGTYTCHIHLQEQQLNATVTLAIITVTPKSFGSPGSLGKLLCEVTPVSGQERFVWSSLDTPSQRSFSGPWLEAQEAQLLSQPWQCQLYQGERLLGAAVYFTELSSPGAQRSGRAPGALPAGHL", "experiment": "SPR binning on LAG3-His; competitor 21", "description": "(§1) The chip surface was regenerated after each cycle with 25 mM NaOH followed by HBS-EP wash provided in the kit."}, "[2]": {"target": "T2, human LAG3 expressed on cells (human, UniProt P18627 23-525)", "T2 sequence (looked up)": "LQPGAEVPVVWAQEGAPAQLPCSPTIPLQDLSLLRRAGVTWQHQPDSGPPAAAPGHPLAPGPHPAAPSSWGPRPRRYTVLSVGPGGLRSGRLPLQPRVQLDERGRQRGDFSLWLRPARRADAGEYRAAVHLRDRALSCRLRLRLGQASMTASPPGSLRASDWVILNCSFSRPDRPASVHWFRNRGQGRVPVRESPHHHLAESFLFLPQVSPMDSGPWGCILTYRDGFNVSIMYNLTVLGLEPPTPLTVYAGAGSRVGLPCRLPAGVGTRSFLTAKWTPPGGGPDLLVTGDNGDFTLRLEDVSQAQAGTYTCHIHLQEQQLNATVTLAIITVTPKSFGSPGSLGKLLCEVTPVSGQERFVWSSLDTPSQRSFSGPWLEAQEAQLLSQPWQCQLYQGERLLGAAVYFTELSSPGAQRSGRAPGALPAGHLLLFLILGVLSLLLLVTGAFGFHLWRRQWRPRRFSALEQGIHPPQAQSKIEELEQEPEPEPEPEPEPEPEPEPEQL", "experiment": "cell-based or functional assay"}, "[3]": {"target": "T1, LAG3 Protein, Human, Recombinant (His …)", "experiment": "SPR (Biacore), sdAb captured by anti-human Fc, LAG3-His analyte", "description": "The binding of the single domain antibodies to recombinant human LAG3 protein (rhLAG3) was examined by Biacore™ assay. […] The coating was carried out according to the manufacturer’s instructions accompanying the kit (Catalog No. BR-1008-39, GE). […] The chip surface was regenerated after each cycle with 25 mM NaOH followed by HBS-EP wash provided in the kit."}, "[4]": {"target": "T1, LAG3 Protein, Human, Recombinant (His …)", "experiment": "SPR binning on LAG3-His; competitor 18", "description": "as §1"}, "[5]": {"target": "T2, human LAG3 expressed on cells", "experiment": "cell-based or functional assay", "remark": "listed apart in the source"}, "[6]": {"target": "T1, LAG3 Protein, Human, Recombinant (His …)", "experiment": "SPR binning on LAG3-His; competitor 24", "description": "as §1"}, "[7]": {"target": "T1, LAG3 Protein, Human, Recombinant (His …)", "experiment": "SPR binning on LAG3-His; competitor BMS", "description": "as §1"}, "[8]": {"target": "T2, human LAG3 expressed on cells", "experiment": "cell-based or functional assay", "remark": "listed apart in the source"}, "[9]": {"target": "T1, LAG3 Protein, Human, Recombinant (His …)", "experiment": "SPR binning on LAG3-His; competitor 25", "description": "as §1"}, "[10]": {"target": "T1, LAG3 Protein, Human, Recombinant (His …)", "experiment": "SPR binning on LAG3-His; competitor 1", "description": "as §1"}, "[11]": {"target": "T1, LAG3 Protein, Human, Recombinant (His …)", "experiment": "SPR binning on LAG3-His; competitor 37", "description": "as §1"}, "[12]": {"target": "T1, LAG3 Protein, Human, Recombinant (His …)", "experiment": "SPR binning on LAG3-His; competitor 17", "description": "as §1"}, "[13]": {"target": "T1, LAG3 Protein, Human, Recombinant (His …)", "experiment": "SPR binning on LAG3-His; competitor 20", "description": "as §1"}, "[14]": {"target": "T1, LAG3 Protein, Human, Recombinant (His …)", "experiment": "SPR binning on LAG3-His; competitor 27", "description": "as §1"}, "[15]": {"target": "T1, LAG3 Protein, Human, Recombinant (His …)", "experiment": "SPR binning on LAG3-His; competitor 73", "description": "as §1"}}, "note": "Where two headings read alike, the source gives them in different places."}
{"binder": "sdAb No. 18 (VHH, Fc of the tested form not described; also called sdAb 18; not shown: Fc part implied by anti-human Fc capture) VHH: QVQLVESGGGLVQPGGSLRLSCAASGFTLNEHAIGWFRRAPGKEREGVSCISSSDGSTYYHDSVKGRFNMSRDDAKNSVYLQMSSLKPEDTAIYYCAAALGRDCQGGQWKTSSWGQGTQVTVSS", "values": [{"measurement": "RU", "setting": "[1]", "value": -11.4, "unit": "RU"}, {"measurement": "IL-2, % of BMS, at 0.005080526 ug/mL", "setting": "[2]", "value": 7.39, "unit": "%"}, {"measurement": "IL-2, % of BMS, at 0.015241579 ug/mL", "setting": "[2]", "value": 10.9, "unit": "%"}, {"measurement": "IL-2, % of BMS, at 0.045724737 ug/mL", "setting": "[2]", "value": 12.9, "unit": "%"}, {"measurement": "IL-2, % of BMS, at 0.137174211 ug/mL", "setting": "[2]", "value": 5.27, "unit": "%"}, {"measurement": "IL-2, % of BMS, at 0.411522634 ug/mL", "setting": "[2]", "value": 6.53, "unit": "%"}, {"measurement": "IL-2, % of BMS, at 1.234567901 ug/mL", "setting": "[2]", "value": 15.5, "unit": "%"}, {"measurement": "IL-2, % of BMS, at 3.703703704 ug/mL", "setting": "[2]", "value": 35.1, "unit": "%"}, {"measurement": "IL-2, % of BMS, at 11.11111111 ug/mL", "setting": "[2]", "value": 45.5, "unit": "%"}, {"measurement": "IL-2, % of BMS, at 33.33333333 ug/mL", "setting": "[2]", "value": 61.7, "unit": "%"}, {"measurement": "IL-2, % of BMS, at 100 ug/mL", "setting": "[2]", "value": 60.9, "unit": "%"}, {"measurement": "koff", "setting": "[3]", "value": "3.69e-07", "unit": "s⁻¹"}, {"measurement": "kon", "setting": "[3]", "value": "2.31e+06", "unit": "M⁻¹ s⁻¹"}, {"measurement": "RU", "setting": "[4]", "value": -9.1, "unit": "RU"}, {"measurement": "IL-2, % of BMS, at 0.005080526 ug/mL", "setting": "[5]", "value": 7.39, "unit": "%"}, {"measurement": "IL-2, % of BMS, at 0.015241579 ug/mL", "setting": "[5]", "value": 10.9, "unit": "%"}, {"measurement": "IL-2, % of BMS, at 0.045724737 ug/mL", "setting": "[5]", "value": 12.9, "unit": "%"}, {"measurement": "IL-2, % of BMS, at 0.137174211 ug/mL", "setting": "[5]", "value": 5.27, "unit": "%"}, {"measurement": "IL-2, % of BMS, at 0.411522634 ug/mL", "setting": "[5]", "value": 6.53, "unit": "%"}, {"measurement": "IL-2, % of BMS, at 1.234567901 ug/mL", "setting": "[5]", "value": 15.5, "unit": "%"}, {"measurement": "IL-2, % of BMS, at 3.703703704 ug/mL", "setting": "[5]", "value": 35.1, "unit": "%"}, {"measurement": "IL-2, % of BMS, at 11.11111111 ug/mL", "setting": "[5]", "value": 45.5, "unit": "%"}, {"measurement": "IL-2, % of BMS, at 33.33333333 ug/mL", "setting": "[5]", "value": 61.7, "unit": "%"}, {"measurement": "IL-2, % of BMS, at 100 ug/mL", "setting": "[5]", "value": 60.9, "unit": "%"}, {"measurement": "RU", "setting": "[6]", "value": -9.9, "unit": "RU"}, {"measurement": "RU", "setting": "[7]", "value": 26.9, "unit": "RU"}, {"measurement": "EC50 for IL-2 rescue, hLAG3 Jurkat T system", "setting": "[8]", "value": 60.6, "unit": "nM"}, {"measurement": "Efficacy (IL-2 production, BMS = 100%)", "setting": "[8]", "value": 51.9, "unit": "%"}, {"measurement": "RU", "setting": "[9]", "value": 274, "unit": "RU"}, {"measurement": "RU", "setting": "[10]", "value": -9.5, "unit": "RU"}, {"measurement": "RU", "setting": "[11]", "value": -8.5, "unit": "RU"}, {"measurement": "RU", "setting": "[12]", "value": -14.7, "unit": "RU"}, {"measurement": "RU", "setting": "[13]", "value": -13.4, "unit": "RU"}, {"measurement": "RU", "setting": "[14]", "value": -5.3, "unit": "RU"}, {"measurement": "RU", "setting": "[15]", "value": -11.1, "unit": "RU"}]}
